Measurements from publication PMC8967877 (2022).
Square brackets hold non-standard residues; d marks the D form. Ends that are not written are not given here. pT = C[C@@H](OP(=O)(O)O)[C@H](N)C(=O)O

Experiments:
Experiment in all cases: FP
[1] = target: Polynucleotide Kinase-Phosphatase (PNKP), human, wild-type (human, UniProt Q96T60-1 1-521)
P101L PNKP (human) = P101L PNKP (human) (human, UniProt Q96T60-1 1-521, P101L)
wild-type murine PNKP = wild-type murine PNKP (murine, UniProt Q9JLV6 1-522)
wild-type murine PNKP, sequence (Q9JLV6 whole entry): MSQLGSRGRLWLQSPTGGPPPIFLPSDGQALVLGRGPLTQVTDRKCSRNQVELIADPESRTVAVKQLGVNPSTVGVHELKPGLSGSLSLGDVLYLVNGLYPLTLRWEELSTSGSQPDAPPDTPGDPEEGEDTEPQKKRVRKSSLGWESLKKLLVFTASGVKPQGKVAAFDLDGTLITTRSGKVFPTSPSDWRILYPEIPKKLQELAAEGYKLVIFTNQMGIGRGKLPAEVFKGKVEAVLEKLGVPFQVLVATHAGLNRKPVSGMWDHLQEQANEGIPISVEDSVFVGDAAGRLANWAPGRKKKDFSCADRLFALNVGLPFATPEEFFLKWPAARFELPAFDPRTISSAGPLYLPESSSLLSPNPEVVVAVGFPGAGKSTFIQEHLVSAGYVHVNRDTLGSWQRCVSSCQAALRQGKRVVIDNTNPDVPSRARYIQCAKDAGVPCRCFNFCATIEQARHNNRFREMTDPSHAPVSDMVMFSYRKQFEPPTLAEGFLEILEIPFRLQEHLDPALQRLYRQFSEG

- Kd [1]: 1080 nM
- Kd (P101L PNKP (human)): > 21000 nM
- Kd (wild-type murine PNKP): 760 nM
B1: fluorescent-dye labeled XRCC4-based phosphopeptide (GGYDES-pT-DEESKK) (peptide)
peptide: GGYDES[pT]DEESKK
modifications: also: fluorescent dye label, position not given here
